# Experimental data: FireProtDB (doi:10.1002/pro.5560060315)
# Conditions: Saccharomyces cerevisiae (strain ATCC 204508 / S288c), CD
# [1] = pH 3, Thermal, acetate 0.1 M, reversible: yes, structure 1YCC
# [2] = pH 3.25, Thermal, acetate 0.1 M, reversible: yes, structure 1YCC
# [3] = pH 3.5, Thermal, acetate 0.1 M, reversible: yes, structure 1YCC
# [4] = pH 3.75, Thermal, acetate 0.1 M, reversible: yes, structure 1YCC
# [5] = pH 4, Thermal, acetate 0.1 M, reversible: yes, structure 1YCC
# [6] = pH 4.25, Thermal, acetate 0.1 M, reversible: yes, structure 1YCC
# [7] = pH 4.5, 25 °C, Thermal, acetate 0.1 M, reversible: yes, structure 1YCC
# [8] = pH 4.5, Thermal, acetate 0.1 M, reversible: yes, structure 1YCC
# [9] = pH 5, Thermal, acetate 0.1 M, reversible: yes, structure 1YCC
# [10] = pH 7.5, 25 °C, GdnHCl, Tris-HCl 20 mM, NaCl 40 mM, reversible: yes, structure 1YCC
# [11] = pH 3, Thermal, acetate 0.1 M, reversible: yes (50-75%), structure 1YCC
# [12] = pH 4.75, Thermal, acetate 0.1 M, reversible: yes, structure 1YCC
# [13] = pH 5.25, Thermal, acetate 0.1 M, reversible: yes, structure 1YCC
# [14] = pH 3, Thermal, acetate 0.1 M, reversible: yes (50-75%)
# [15] = pH 3.25, Thermal, acetate 0.1 M, reversible: yes (50-75%)
# [16] = pH 3.5, Thermal, acetate 0.1 M, reversible: yes
# [17] = pH 3.75, Thermal, acetate 0.1 M, reversible: yes
# [18] = pH 4, Thermal, acetate 0.1 M, reversible: yes
# [19] = pH 4.25, Thermal, acetate 0.1 M, reversible: yes
# [20] = pH 4.5, 25 °C, Thermal, acetate 0.1 M, reversible: yes
# [21] = pH 4.5, Thermal, acetate 0.1 M, reversible: yes
# [22] = pH 4.75, Thermal, acetate 0.1 M, reversible: yes
# [23] = pH 5, Thermal, acetate 0.1 M, reversible: yes
# [24] = pH 7.5, 25 °C, GdnHCl, Tris-HCl 20 mM, NaCl 40 mM, reversible: yes
# Sequence of Cytochrome c isoform 1 K79I, P00044 (P00044 whole entry K79I, canonical isoform): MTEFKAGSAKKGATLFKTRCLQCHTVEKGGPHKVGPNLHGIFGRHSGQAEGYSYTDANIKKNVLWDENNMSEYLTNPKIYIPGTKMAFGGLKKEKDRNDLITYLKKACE
# Sequence of Cytochrome c isoform 1 wild type, P00044 (P00044 whole entry, canonical isoform): as the sequence (P00044 whole entry K79I, canonical isoform) above, with I79K counted along it
# Sequence of Cytochrome c isoform 1 K79V, P00044 (P00044 whole entry K79V, canonical isoform): as the sequence (P00044 whole entry K79I, canonical isoform) above, with I79V counted along it
substance,measurement,setting,value
"Cytochrome c isoform 1 K79V, P00044",Tm,[1],22.7 °C
same,"change of melting temperature, mutant - wild type (higher = more stable)",[1],1.2 °C
same,unfolding enthalpy (van 't Hoff),[1],37 kcal/mol
same,Tm,[2],28.7 °C
same,"change of melting temperature, mutant - wild type (higher = more stable)",[2],6.1 °C
same,unfolding enthalpy (van 't Hoff),[2],46.3 kcal/mol
same,Tm,[3],31.4 °C
same,"change of melting temperature, mutant - wild type (higher = more stable)",[3],0.7 °C
same,unfolding enthalpy (van 't Hoff),[3],47.3 kcal/mol
same,Tm,[4],36.6 °C
same,"change of melting temperature, mutant - wild type (higher = more stable)",[4],1.7 °C
same,unfolding enthalpy (van 't Hoff),[4],58.5 kcal/mol
same,Tm,[5],38.9 °C
same,"change of melting temperature, mutant - wild type (higher = more stable)",[5],-1.8 °C
same,unfolding enthalpy (van 't Hoff),[5],60.2 kcal/mol
same,Tm,[6],42.9 °C
same,"change of melting temperature, mutant - wild type (higher = more stable)",[6],-0.2 °C
same,unfolding enthalpy (van 't Hoff),[6],64.8 kcal/mol
same,ddG of mutation (higher = less stable),[7],-0.1 kcal/mol
same,heat capacity change of unfolding,[7],1.5 kcal/mol/K
same,unfolding enthalpy (van 't Hoff),[7],40 kcal/mol
same,unfolding free energy,[7],3.8 kcal/mol
same,Tm,[8],46.7 °C
same,"change of melting temperature, mutant - wild type (higher = more stable)",[8],1.7 °C
same,unfolding enthalpy (van 't Hoff),[8],72.5 kcal/mol
same,Tm,[9],49.5 °C
same,"change of melting temperature, mutant - wild type (higher = more stable)",[9],-3.2 °C
same,unfolding enthalpy (van 't Hoff),[9],75.5 kcal/mol
same,ddG of mutation (higher = less stable),[10],1.38 kcal/mol
same,denaturant m value,[10],4.01 kcal/mol/M
same,unfolding free energy,[10],4.28 kcal/mol
"Cytochrome c isoform 1 K79W, P00044",Tm,[11],22.8 °C
same,"change of melting temperature, mutant - wild type (higher = more stable)",[11],1.3 °C
same,unfolding enthalpy (van 't Hoff),[11],43.5 kcal/mol
same,Tm,[2],22.8 °C
same,"change of melting temperature, mutant - wild type (higher = more stable)",[2],0.2 °C
same,unfolding enthalpy (van 't Hoff),[2],49.8 kcal/mol
same,Tm,[3],27.5 °C
same,"change of melting temperature, mutant - wild type (higher = more stable)",[3],-3.2 °C
same,unfolding enthalpy (van 't Hoff),[3],50.5 kcal/mol
same,Tm,[4],29.2 °C
same,"change of melting temperature, mutant - wild type (higher = more stable)",[4],-5.7 °C
same,unfolding enthalpy (van 't Hoff),[4],58.6 kcal/mol
same,Tm,[6],31.5 °C
same,"change of melting temperature, mutant - wild type (higher = more stable)",[6],-11.6 °C
same,unfolding enthalpy (van 't Hoff),[6],68.5 kcal/mol
same,ddG of mutation (higher = less stable),[7],1.6 kcal/mol
same,heat capacity change of unfolding,[7],1.15 kcal/mol/K
same,unfolding enthalpy (van 't Hoff),[7],51.4 kcal/mol
same,unfolding free energy,[7],2.1 kcal/mol
same,Tm,[8],36.1 °C
same,"change of melting temperature, mutant - wild type (higher = more stable)",[8],-8.9 °C
same,unfolding enthalpy (van 't Hoff),[8],64.2 kcal/mol
same,Tm,[12],39 °C
same,"change of melting temperature, mutant - wild type (higher = more stable)",[12],-9.6 °C
same,unfolding enthalpy (van 't Hoff),[12],71.4 kcal/mol
same,Tm,[9],47.6 °C
same,"change of melting temperature, mutant - wild type (higher = more stable)",[9],-5.1 °C
same,unfolding enthalpy (van 't Hoff),[9],78 kcal/mol
same,Tm,[13],49.3 °C
same,unfolding enthalpy (van 't Hoff),[13],76.5 kcal/mol
same,ddG of mutation (higher = less stable),[10],1.43 kcal/mol
same,denaturant m value,[10],4.16 kcal/mol/M
same,unfolding free energy,[10],4.23 kcal/mol
"Cytochrome c isoform 1 K79I, P00044",Tm,[1],22.3 °C
same,"change of melting temperature, mutant - wild type (higher = more stable)",[1],0.8 °C
same,unfolding enthalpy (van 't Hoff),[1],33 kcal/mol
same,Tm,[2],26.7 °C
same,"change of melting temperature, mutant - wild type (higher = more stable)",[2],4.1 °C
same,unfolding enthalpy (van 't Hoff),[2],40.8 kcal/mol
same,Tm,[3],31.7 °C
same,"change of melting temperature, mutant - wild type (higher = more stable)",[3],1 °C
same,unfolding enthalpy (van 't Hoff),[3],51.4 kcal/mol
same,Tm,[4],35.5 °C
same,"change of melting temperature, mutant - wild type (higher = more stable)",[4],0.6 °C
same,unfolding enthalpy (van 't Hoff),[4],57.7 kcal/mol
same,Tm,[5],38.7 °C
same,"change of melting temperature, mutant - wild type (higher = more stable)",[5],-2 °C
same,unfolding enthalpy (van 't Hoff),[5],61.1 kcal/mol
same,Tm,[6],41.3 °C
same,"change of melting temperature, mutant - wild type (higher = more stable)",[6],-1.8 °C
same,unfolding enthalpy (van 't Hoff),[6],67.4 kcal/mol
same,Tm,[8],45.2 °C
same,"change of melting temperature, mutant - wild type (higher = more stable)",[8],0.2 °C
same,unfolding enthalpy (van 't Hoff),[8],69.1 kcal/mol
same,Tm,[12],46.9 °C
same,"change of melting temperature, mutant - wild type (higher = more stable)",[12],-1.7 °C
same,unfolding enthalpy (van 't Hoff),[12],73.8 kcal/mol
same,Tm,[9],47.7 °C
same,"change of melting temperature, mutant - wild type (higher = more stable)",[9],-5 °C
same,unfolding enthalpy (van 't Hoff),[9],77.4 kcal/mol
same,ddG of mutation (higher = less stable),[10],1.19 kcal/mol
same,denaturant m value,[10],4.29 kcal/mol/M
same,unfolding free energy,[10],4.47 kcal/mol
"Cytochrome c isoform 1 wild type, P00044",Tm,[14],21.5 °C
same,unfolding enthalpy (van 't Hoff),[14],39.6 kcal/mol
same,Tm,[15],22.6 °C
same,unfolding enthalpy (van 't Hoff),[15],42 kcal/mol
same,Tm,[16],30.7 °C
same,unfolding enthalpy (van 't Hoff),[16],54.2 kcal/mol
same,Tm,[17],34.9 °C
same,unfolding enthalpy (van 't Hoff),[17],62.3 kcal/mol
same,Tm,[18],40.7 °C
same,unfolding enthalpy (van 't Hoff),[18],69.8 kcal/mol
same,Tm,[19],43.1 °C
same,unfolding enthalpy (van 't Hoff),[19],73.7 kcal/mol
same,heat capacity change of unfolding,[20],1.4 kcal/mol/K
same,unfolding enthalpy (van 't Hoff),[20],45.4 kcal/mol
same,unfolding free energy,[20],3.7 kcal/mol
same,Tm,[21],45 °C
same,unfolding enthalpy (van 't Hoff),[21],73.4 kcal/mol
same,Tm,[22],48.6 °C
same,unfolding enthalpy (van 't Hoff),[22],79.6 kcal/mol
same,Tm,[23],52.7 °C
same,unfolding enthalpy (van 't Hoff),[23],81.9 kcal/mol
same,denaturant m value,[24],4.87 kcal/mol/M
same,unfolding free energy,[24],5.66 kcal/mol
